The supplement of paper PMC9170038

System: MS2 coat protein
Assay: apparent KD of MS2 coat protein; designed switch direction (-1 OFF switch, 1 ON switch): 1; higher = weaker reporter binding
Outline: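 The apparent KD reported per design is the median over clusters of curve fits to normalised cluster fluorescence. The RNA switches were transcribed on Illumina chips by stalled E. coli RNA polymerase. SNAP-549-labelled MS2 coat protein was titrated from 0.7 or 1.5 nM, doubling up to 3 µM, in Tris-HCl pH 7.5 buffer containing KCl, MgCl2, BSA, DTT, tRNA and Tween-20, with no input, 200 uM small-molecule ligand, or an oligonucleotide input.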

[1] = input ligand: microRNA oligo, concentration not stated
[2] = Eterna round: R95, input ligand: FMN 200 uM
[3] = Eterna round: R95, input ligand: microRNA oligo, concentration not stated
[4] = Eterna round: R95, input ligand: none

Row | Sequence | apparent KD of MS2 coat protein [1] | apparent KD of MS2 coat protein (input ligand: FMN 200 uM) | apparent KD of MS2 coat protein (input ligand: none) | apparent KD of MS2 coat protein [2] | apparent KD of MS2 coat protein [3] | apparent KD of MS2 coat protein [4]
1 | UUUUCGAACCGAGGAUAUCCUUAUAAGAAACAUGAGGAUCACCCAUGUAAAGGGAAUUAUUUGUAGGAGAAGGCGGAUUUUGUU [JR_SSNG2_Sub054] (Eterna round: R96, puzzle: Same State NG 2) | 33.9 nM |  |  |  |  | 
2 | AGCUAUUACGAAGGAUAUUCUGACAUGAGGAUCACCCAUGUCUUCAUGAUUUAUUGUGAUCACGUGAAGAAGGUUGUACUAACA [SameState NG2 #26] (Eterna round: R96, puzzle: Same State NG 2) | 72.2 nM | 66.4 nM | 72.2 nM |  |  | 
3 | GCCAUCGUAUGAGGAUAUGGCACCGAAACGGUGCCAGAAGGCAUGUCAAUUGACAUGAGGAUCACCCAUGUAUUAUCGAUGGCA [Mat - Same State NG 1 - JL mod - D89] (Eterna round: R96, puzzle: Same State NG 1) | 454 nM |  |  |  |  | 
4 | GUAGCAUACCGAGGAUAUUCAUACAUGAGGAUCACCCAUGUUAUUAUAGGACGAUUACGUCCUUGGGAGAAGGCGGAAUGCUAC [Xeonanis - 20 Mod29] (Eterna round: R96, puzzle: Same State NG 2) | 11.8 nM | 10.2 nM | 15.1 nM |  |  | 
5 | AGGUAACAUGAGGAUCACCCAUGUAAGGUGAACGUAGGAUAUCGAAGAGGUAGGGUAGGACGAGAAGGACGAGGAA [JR_SS1_Sub092] (puzzle: Same State 1) |  |  |  | 347 nM | 346 nM | 481 nM
6 | GCACUCCAAGGAGCUGCGACAUGAGGAUCACCCAUGUAAUCACAGGAUAUGCGAUUCCGAAUUUUGCAGAAGGGUGAUAAGAAC [Ratele] (Eterna round: R96, puzzle: Same State NG 3) | 18 nM | 139 nM | 106 nM |  |  | 
7 | CACAUCCAGGUAGGAUAUGAGGUGCCAUAGGGAAAAGCCUAUGGACAUGAGGAUCACCCAUGUCCUCAGAAGGGCCGGACGUGA [Ceerbearre] (Eterna round: R96, puzzle: Same State NG 2) | 79.6 nM | 26.5 nM | 96.7 nM |  |  | 
8 | UGUUGUAUUACAGGAUAUCUAUGAUUUUUAUUUAGAGAAGGGUAUUCACAUGAGGAUCACCCAUGUAUAUACGAGGAAGUUGUG [JMF's solution 11] (Eterna round: R96, puzzle: Same State NG 1) | 36.8 nM |  |  |  |  | 
9 | AGUCCAGCCUGAGCUGGACAAAAGCAUGUACAUGAGGAUCACCCAUGUCAUGUACAAGCUUUUUGCUCGUCAUAAAA [Mat - hsa-mir-208a - Mod of JL - D8] (puzzle: Sensor for hsa-mir-208a) |  |  |  | 578 nM | 14.7 nM | 651 nM
10 | CCGCAUUCAGCAGGAUAUCUCAACCGGAAGAUGAGAGAAGGGUUGAUUACAUGAGGAUCACCCAUGUCCAAGCAUGCGAGAGCC [Eternabot solution 23] (Eterna round: R96, puzzle: Same State NG 1) | 754 nM | 500 nM | 188 nM |  |  | 
11 | GUGGUCAGACAUGAGGAUCACCCAUGUGGAAUAAAUAAGGAUUAGGAUAUGGAAUAUAGGAUAUACCAGAAGGAAUGGUUGGUG (Eterna round: R96, puzzle: Same State NG 3) | 75.8 nM |  |  |  |  | 
12 | GUAGCAUACCGAGGAUAUUCAUAUUACAUGAGGAUCACCCAUGUUAUUUAGGCCAAAAGGCCUUGGGAGAAGGCGGAAUGCUAC [Xeonanis - 20 Mod8] (Eterna round: R96, puzzle: Same State NG 2) | 9.17 nM | 9.39 nM | 18.2 nM |  |  | 
13 | AGAUCAUGACGAGGAUAUCCGACAUGAGGAUCACCCAUGUAUGUCGGAGGACGCGUACGUCCAAAGGAGAAGGCGUCGUGGUCA [JL SSNG2 1.02] (Eterna round: R96, puzzle: Same State NG 2) | 48.4 nM | 17.4 nM | 100 nM |  |  | 
14 | UUCACCUUUUUUUACAUGAGGAUCACCCAUGUUUUUUUUACGUAGGAUAUCGAUGCUUGUUUUUUCGAGAAGGACGAUGUAAGU [JR_SSND3_Sub052] (Eterna round: R96, puzzle: Same State NG 3) | 12.2 nM | 16.7 nM | 18.2 nM |  |  | 
15 | ACCCACGACGGAGGAUAUGGGCACUCGGCGGAAUAAACCGCCAUAACAUGAGGAUCACCCAUGUCCCAGAAGGCCGUCGCAAUC [Esdirece] (Eterna round: R96, puzzle: Same State NG 2) | 404 nM | 109 nM | 712 nM |  |  | 
16 | UGUUGUAUUACAGGAUAUCUAUUAGUAUUAUUUAGAGAAGGGUAUUCACAUGAGGAUCACCCAUGUAUAUACGAGGAAGUUGUG [JMF's solution 89] (Eterna round: R96, puzzle: Same State NG 1) | 34.8 nM |  |  |  |  | 

Row | Sequence | apparent KD of MS2 coat protein [1] | apparent KD of MS2 coat protein (input ligand: FMN 200 uM) | apparent KD of MS2 coat protein (input ligand: none) | apparent KD of MS2 coat protein [2] | apparent KD of MS2 coat protein [3] | apparent KD of MS2 coat protein [4]
17 | CGUCGUUUGAUAGGAUAUCGCUUUACAUGAGGAUCGCCCAUGUUUACCACGCUGGUUUUUCUUUCCGAGAAGGAUUCUGAUGUU [salish99_SSNG02_r04_027] (Eterna round: R96, puzzle: Same State NG 2) | 10.5 nM | 28.4 nM | 4.85 nM |  |  | 
18 | GGAGCCGGUACUGAGGAUAUUCGUAUUAAAACAUGAGGAUCACCCAUGUAGGCCAGAAGGCCUUGGGAGAAGGCAGACCAGCUCG [Atgexeedri - 5] (puzzle: Same State 2) |  |  |  | 14.3 nM | 26 nM | 40.5 nM
19 | CAAGAAAACGCAGGAUAUACCCGGGCUACCCGGGUAGAAGGGUGACACAUGAGGAUCACCCAUGUACAUAGAAUUAGCUAUGGA [Soberaa] (Eterna round: R96, puzzle: Same State NG 1) | 15.9 nM | 284 nM | 26.7 nM |  |  | 
20 | AACAAUCUAUCUGAGGAUAUCAUGAUAAGAACAUGAGGAUCACCCAUGUGCAGGAAAACUGCAUAUGAGAAGGCAGAUAGAUUGG [Mat - Same State 2 - Mod - D19] (puzzle: Same State 2) |  |  |  | 42.5 nM | 492 nM | 472 nM
21 | UUAACAUGAGGAUCACCCAUGUAUACGGAGUUUGCAAUUUGACAGGAUAUUGAAGAUCUAUAUAGCAAGAAGGGUCGUUAGUCU [JR_SSNG3_Sub006] (Eterna round: R96, puzzle: Same State NG 3) | 32.6 nM | 47.5 nM | 44.7 nM |  |  | 
22 | AAACAGUCGCUGCGGCGACCACAUGAGGAUCACCCAUGUACAUAGGAUAUCGCCUAAAAUACUGGCGAGAAGGGUGAUUAAAGA [Vegeonor] (Eterna round: R96, puzzle: Same State NG 3) | 12.4 nM | 90.4 nM | 55.9 nM |  |  | 
23 | AGGACGAGCACAGGAUAUCCACGGAAAAGACGCGGAGAAGGGUGAAGUCAUGGAAAGAAAAGACAUGAGGAUCACCCAUGUAAA [Dibema] (Eterna round: R96, puzzle: Same State NG 1) | 20.5 nM | 26.2 nM | 28.4 nM |  |  | 
24 | AAACGGCCGAACGGAGGACCACAUGAGGAUCACCCAUGUACAUAGGAUAUCAUGCCAACGAGGCAUGAGAAGGGUGAUUAAAAC [Ribigeso] (Eterna round: R96, puzzle: Same State NG 3) | 27.6 nM | 126 nM | 32 nM |  |  | 
25 | GGUAUCGGCACAGGAUAUGCUAUCCUUUGGGUAGCAGAAGGGUGGACAUGAGGAUCACCCAUGUGGGUGCCAGGGCGUGAGCCC [JL SSNG1 1.85] (Eterna round: R96, puzzle: Same State NG 1) | 363 nM | 912 nM | 907 nM |  |  | 
26 | GGAGAACAUGAGGAUCACCCAUGUGGAUGAGCGCUAGGAUAUGCGGGAGGGUGAAGAGAAGCAGAAGGAGUAGAUA [JR_SS1_Sub034] (puzzle: Same State 1) |  |  |  | 63.9 nM | 99.6 nM | 180 nM
27 | AUACAAAACACAAAUACAAACAAAUACAAACAUGAGGAUCACCCAUGUGCAAUACGACUCUUUAUGGCUGGUCUUCA [Onvete] (Eterna round: R96, puzzle: Sensor for hsa-mir-208a) | 60.1 nM | 87.7 nM | 107 nM |  |  | 
28 | GGAGCCGGCCUAGGAUAUUUCAUUAAUAAACAUGAGGAUCACCCAUGUAGGCCAGAAGGCCUUGGGAAGAAGGAGGUCGGCUCC [Loop Effect - U24,U27] (Eterna round: R96, puzzle: Same State NG 2) | 24.5 nM | 21.2 nM | 37.7 nM |  |  | 
29 | GGUGCGAAUAAAGCCUACAUGAGGAUCACCCAUGUAUGUAGGCAGGAUAUCGUUUGCUUUGCAAACGAGAAGGGCUGACGCACC [JL SSNG3 1.17] (Eterna round: R96, puzzle: Same State NG 3) | 37.7 nM | 27.4 nM | 63.6 nM |  |  | 
30 | GGUCCAGCCUGAGCUGGACCACAGCAUGUACAUGAGGAUCACCCAUGUCAUGUACAAGCUUUUUGUUUAAAAUAAAA [Sensorship 13 - Jieux - Sensor for hsa-mir-208a] (puzzle: Sensor for hsa-mir-208a) |  |  |  | 261 nM | 30.5 nM | 209 nM
31 | CCCUCACAUGAGGAUCACCCAUGUCCUAGCCCGUCAGGAUAUAGCCCGCAUCCGCUGCGGCUAGAAGGGACAGCUG [JR_SS001_Sub611] (Eterna round: R96, puzzle: Same State 1) | 152 nM | 177 nM | 232 nM |  |  | 
